The values that follow come from patent publication US5376640A, “Lipolytic enzyme inhibitors” (Nisshin Flour Milling Co., Ltd., priority 1989, dated 1994).

The target of assay [1] is T1, porcine pancreatic lipase (Sus scrofa, UniProt P00591).
T1 construct: purchased Sigma Co., Ltd
T1 sequence (P00591 1-450): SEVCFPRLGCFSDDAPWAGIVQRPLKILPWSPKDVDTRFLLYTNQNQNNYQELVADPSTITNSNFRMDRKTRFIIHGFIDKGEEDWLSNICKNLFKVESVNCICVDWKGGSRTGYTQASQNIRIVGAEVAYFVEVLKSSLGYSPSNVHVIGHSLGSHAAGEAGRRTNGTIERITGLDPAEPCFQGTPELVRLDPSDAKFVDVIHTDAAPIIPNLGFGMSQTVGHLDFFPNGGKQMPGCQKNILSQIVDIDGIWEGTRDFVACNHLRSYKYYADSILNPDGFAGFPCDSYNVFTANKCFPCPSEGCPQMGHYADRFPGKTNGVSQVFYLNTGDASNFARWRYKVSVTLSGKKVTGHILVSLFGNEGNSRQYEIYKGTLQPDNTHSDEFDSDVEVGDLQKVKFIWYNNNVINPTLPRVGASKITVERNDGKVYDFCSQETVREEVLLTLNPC
The assay can be described thus: Assay of lipase inhibitory activity (olive oil emulsion with sodium cholate, Tris buffer pH 6.8). In kind it is biochemical. The settings on record: for Activity of porcine pancreatic lipase: peptide solution 1 mg/ml in distilled water, control = 100. The method, then: 250 mg of an olive oil, 21.5 mg of sodium cholate as a bile acid component and 30 mg of phosphatidylcholine were added to 5 ml of a 200 mM Tris buffer solution at pH 6.8 (called hereafter "Tris buffer").
(§1) The mixture was ultrasonicated to prepare an olive oil emulsion.
Porcine pancreatic lipase (manufactured by Sigma Co., Ltd.) was added to Tris buffer to prepare an enzyme solution containing 100 units porcine pancreatic lipase per ml.
(§2) 100 μl of an olive oil emulsion as prepared above were used as a substrate.
(§3) 50 μl of Tris buffer was added to the substrate to prepare an emulsion for control sample. Each 50 ml of the protein(polypeptide)-containing solutions as prepared above was added to 100 μl of the substrate to prepare six emulsions for test sample. All of the emulsions were incubated for 5 min. To each of those emulsions was added 50 μl of the lipase solution as prepared above. The resulting mixture was incubated at 37° C. for one hour, subsequently to which were added 3 ml of the same extraction solvent as used in Example 1. After being shaken for 5 min., the mixture was centrifuged at 3000 rpm for 5 min. The upper layer was removed with an aspirator and to the remaining solution was added 1 ml of the same copper reagent as used in Example 1. The mixture was shaken for 5 min. and centrifuged at 3000 rpm for 5 min. 0.5 ml of a solution was taken from the upper layer and to the solution was added 0.5 ml of the same color developing agent as used in Example 1.
The resulting solutions for control and test samples were measured for the absorbance at 480 nm (A480) using a photometer to determine the amount of the free fatty acids as formed, i.e., the activity of the porcine pancreatic lipase. […]
Lysine oligomers having a degree of polymerization of 2-5 as shown in Table 6 below were prepared using a peptide synthesizer (Biolynx 4170, LKB-Pharmacia Co., Ltd.). Each of the oligomers was purified by high performance liquid chromatography. Each of the purified oligomers was added to distilled water to make up to 1 μmol/ml. […] lysine oligomer-containing solutions were thus prepared.
50 μl of Tris buffer was added to the substrate to prepare an emulsion for control sample. Each 50 μof the lysine oligomer-containing solutions as prepared above was added to 100 μl of the substrate to prepare six emulsions for test sample. After incubating the emulsions for 5 min., there was added 50 μl of a lipase solution containing 100 units of porcine pancreatic lipase per ml as prepared in the same way as in Example 4. The resulting mixture was incubated at 37 ° C. for one hour.

In assay [2] the target is Porcine pancreatic lipase (porcine) (UniProt P00591).
Assay [3] has the same target. The source holds these as a separate data set.
Assay [4] has the same target. The source holds these as a separate data set.
Assay [5] has the same target. The source holds these as a separate data set.
Assay [6] has as its target Cholesterol esterase isolated from porcine pancreas (porcine).
For assay [7], the target named is T1, porcine pancreatic lipase. The assay can be described thus: Assay of lipase inhibitory activity of proteins (olive oil emulsion with sodium cholate, potassium phosphate buffer pH 6.8). In kind it is biochemical. The settings on record: for Activity of porcine pancreatic lipase (%): protein solution 4 mg/ml, % of control Abs480, sodium cholate present, 37° C., one hour; for Activity of porcine pancreatic lipase: % of control. On the procedure: 250 mg of an olive oil, 21.5 mg of sodium cholate as a bile acid component and 30 mg of phosphatidylcholine were added to 5 ml of a 300 mM potassium phosphate buffer solution at pH 6.8 (called hereafter "potassium phosphate buffer").
as §1
Porcine pancreatic lipase (manufactured by Sigma Co., Ltd.) was added to the potassium phosphate buffer solution to prepare a lipase solution containing 100 units porcine pancreatic lipase per ml.
as §2
50 μl of potassium phosphate buffer was added to the substrate to prepare an emulsion for control sample. Each 50 μl of the protein(polypeptide)-containing solutions as prepared above was added to 100 μl of the substrate to prepare six emulsions for test samples. All of the emulsions were incubated for 5 min. To each of those emulsions was added 50 μl of the lipase solution as prepared above. The resulting mixture was incubated at 37° C. for one hour, subsequently to which were added 3 ml of an extraction solvent (chloroform:methanol:n-heptane=49:1:49). After being shaken for 5 min., the mixture was centrifuged at 3000 rpm for 5 min. The upper layer was removed with an aspirator and to the remaining solution was added 1 ml of a copper reagent (0.45M triethanol amine, 0.05N acetic acid, 3,4% copper sulfate pentahydrate and 20% sodium chloride). The mixture was shaken for 5 min. and centrifuged at 3000 rpm for 5 min. 0.5 ml of a solution was taken from the upper layer and to the solution was added 0.5 ml of a color developing agent (a solution of 0.1% bathocuproine and 0.05% butyl hydroxyanisole in the above extraction solvent).
The resulting solutions for control and test samples were measured for the absorbance at 480 nm (A480) using a photometer to determine the amount of the free fatty acids as formed, i.e., the activity of the porcine pancreatic lipase.

Assay [8] deals with cholesterol esterase isolated from porcine pancreas (Sus scrofa, UniProt A0A286ZKB1). The settings on record: protein solution 4 mg/ml; % of control Abs480; sodium cholate present; 37° C., one hour. The method, then:
as §2
as §3, with “potassium phosphate” for “Tris”, “Each 50 ml of the protein(polypeptide)-containing solutions as prepared above was added to 100 μl of the substrate to prepare six emulsions for test sample.” left out

Setting [9] is: lysine oligomer solution 1 μmol/ml, % of control.
Where [10] appears, read: solution of 1 mg in 10 ml Tris buffer, % of control Abs480, sodium cholate present.

Where two headings read alike, the source gives them in different places. Where a SMILES comes first, the peptide text is derived from it. Where no end group is shown, it is not given here.

Chain of cholesterol esterase isolated from porcine pancreas (A0A286ZKB1 1-682): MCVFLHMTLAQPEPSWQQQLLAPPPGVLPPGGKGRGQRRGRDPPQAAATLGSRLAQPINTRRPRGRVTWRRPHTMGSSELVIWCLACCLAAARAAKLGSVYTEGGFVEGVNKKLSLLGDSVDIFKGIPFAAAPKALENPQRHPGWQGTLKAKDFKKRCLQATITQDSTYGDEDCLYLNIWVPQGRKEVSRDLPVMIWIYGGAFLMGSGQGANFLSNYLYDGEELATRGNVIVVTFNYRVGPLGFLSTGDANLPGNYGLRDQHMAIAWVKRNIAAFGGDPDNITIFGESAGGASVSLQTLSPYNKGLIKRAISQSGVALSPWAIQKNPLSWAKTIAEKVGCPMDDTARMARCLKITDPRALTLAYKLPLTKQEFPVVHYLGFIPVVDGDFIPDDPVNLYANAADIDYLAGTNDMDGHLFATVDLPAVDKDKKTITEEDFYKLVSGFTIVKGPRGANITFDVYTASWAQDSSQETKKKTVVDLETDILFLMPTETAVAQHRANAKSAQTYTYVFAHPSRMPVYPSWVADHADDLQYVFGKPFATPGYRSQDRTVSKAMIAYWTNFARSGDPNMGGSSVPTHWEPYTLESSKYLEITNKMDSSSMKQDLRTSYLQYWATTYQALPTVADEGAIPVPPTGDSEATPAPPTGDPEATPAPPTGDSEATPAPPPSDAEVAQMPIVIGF

Turning to α-poly-D-lysine hydrobromide, the “Activity of porcine pancreatic lipase” value in assay [1] turned out to be 1.1. Take `NCCCC[C@H](N)C(=O)NCCCC[C@H](N)C(=O)NCCCC[C@H](N)C(=O)NCCCC[C@H](N)C(=O)NCCCC[C@H](N)C(=O)O` [ε-(L-lysine)5]: the “Activity of porcine pancreatic lipase (%)” value in assay [1] (setting [9]) was 3.1%. With ε-(L-lysine)5 (SEQ ID NO: 7) (peptide), the Activity of porcine pancreatic lipase (%) in assay [2] was 3.1 % of control.

Take “α-poly-D-lysine hydrobromide (P7886, Sigma Co., Ltd.) (peptide)”: the Activity of porcine pancreatic lipase (Example 6, 1 mg/ml solution) in assay [3] was 1.1 % of control.

On to α2-purothionin (SEQ ID NO:2) (peptide), for which the Activity of porcine pancreatic lipase (%) in assay [4] is 0 % of control.

Regarding poly-L-arginine, in assay [1] (setting [10]), the “Activity of porcine pancreatic lipase (%)” value amounted to 16.5%. For Protamine, the “Activity of porcine pancreatic lipase (%)” value in assay [1] (setting [10]) was determined as 1.3%. As to KKKKK [α-(L-lysine)5], the “Activity of porcine pancreatic lipase (%)” value in assay [1] (setting [9]) worked out at 2.1%. For the molecule “Protamine (P4005, Sigma Co., Ltd., U.S.A.)”, the Activity of porcine pancreatic lipase (%), Tris buffer in assay [5] was 1.3 % of control. “α-poly-L-lysine (3075, Peptide Research Co., Ltd.)”: the Activity of porcine pancreatic lipase (%), Tris buffer in assay [5] is 6.9 % of control. The Activity of porcine pancreatic lipase (Example 6, 1 mg/ml solution) in assay [3] is 1.6 % of control. As for α-poly-L-lysine hydrochloride, in assay [1], the “Activity of porcine pancreatic lipase” value is recorded as 1.6. In addition, in assay [1] (setting [10]), the “Activity of porcine pancreatic lipase (%)” value worked out at 6.9%. Take “Bovine serum albumin (A7030, Sigma Co., Ltd., U.S.A.) (from UniProt P02769)”: the Activity of porcine pancreatic lipase (%) in assay [4] was 105 % of control. For the same molecule, the Activity of cholesterol esterase (%) in assay [6] was 120 % of control.

In the case of `NCCCC[C@H](N)C(=O)NCCCC[C@H](N)C(=O)NCCCC[C@H](N)C(=O)NCCCC[C@H](N)C(=O)O` [ε-(L-lysine)4], in assay [1] (setting [9]), the “Activity of porcine pancreatic lipase (%)” value came out at 53.8%. With “β-Lactoglobulin: β-lactoglobulin (L0130, Sigma Co., Ltd.), non-basic comparison protein [reference compound]”, the “Activity of porcine pancreatic lipase (%)” value in assay [7] stood at 103.9%. In addition, in assay [8], the “Activity of cholesterol esterase (%)” value turned out to be 89.9%. With Histone H2A (H6881, Sigma Co., Ltd.), the Activity of porcine pancreatic lipase (%), Tris buffer in assay [5] was 3.7 % of control. For “β-lactoglobulin (L0130, Sigma Co., Ltd.) (from UniProt P02754)”, the Activity of porcine pancreatic lipase (%) in assay [4] is 104 % of control. In assay [6], the Activity of cholesterol esterase (%) is 89.9 % of control. Consider “Ovalbumin (A5503, Sigma Co., Ltd.) (from UniProt P01012)”, for which, in assay [4], the Activity of porcine pancreatic lipase (%) was 107 % of control. For the same molecule, the Activity of cholesterol esterase (%) in assay [6] was 93.6 % of control.

As to α-(L-lysine)2 (peptide), the Activity of porcine pancreatic lipase (%) in assay [2] was 104 % of control. As to `NCCCC[C@H](NC(=O)[C@@H](N)CCCCN)C(=O)O` [α-(L-lysine)2], in assay [1] (setting [9]), the “Activity of porcine pancreatic lipase (%)” value was found to be 103.6%. As to ε-(L-lysine)4 (SEQ ID NO: 6) (peptide), the Activity of porcine pancreatic lipase (%) in assay [2] is 53.8 % of control.

Take Histone H3 (H4380, Sigma Co., Ltd.): the Activity of porcine pancreatic lipase (%), Tris buffer in assay [5] is 2.3 % of control. “β-Purothionin: purified β-purothionin (SEQ ID NO:3) isolated from the crude wheat purothionin mixture; misprinted α-Purothionin in Table 3 (KSCCKSTLGRNCYNLCRARGAQKLCANVCRCKLTSGLSCPKDFPK)”: the “Activity of porcine pancreatic lipase” value in assay [7] (concentration of 0.04 mg/ml, separate experiment) is 5.2%; in assay [7] (solution diluted to protein concentration of 0.2 mg/ml) it was 0%. The “Activity of porcine pancreatic lipase (%)” value worked out at 0% in assay [7] and 1.3% in assay [1] (setting [10]). For the molecule “Poly-L-arginine (P3892, Sigma Co., Ltd.) (peptide)”, the Activity of porcine pancreatic lipase (%), Tris buffer in assay [5] was 16.5 % of control.

As to `NCCCC[C@H](N)C(=O)NCCCC[C@H](N)C(=O)NCCCC[C@H](N)C(=O)O` [ε-(L-lysine)3], the “Activity of porcine pancreatic lipase (%)” value in assay [1] (setting [9]) is listed as 89.0%. Take `NCCCC[C@H](NC(=O)[C@H](CCCCN)NC(=O)[C@H](CCCCN)NC(=O)[C@@H](N)CCCCN)C(=O)O` [α-(L-lysine)4] (H-KKKK-OH): the “Activity of porcine pancreatic lipase (%)” value in assay [1] (setting [9]) is 103.8%. For ε-(L-lysine)3 (peptide), the Activity of porcine pancreatic lipase (%) in assay [2] is 89 % of control. Same read-out and setting: under KKKK [α-(L-lysine)4 (SEQ ID NO: 4)] stands 104 % of control.

B1: Ovalbumin: ovalbumin (A5503, Sigma Co., Ltd.), non-basic comparison protein (protein, UniProt P01012 2-386, looked up)
Ovalbumin: GSIGAASMEFCFDVFKELKVHHANENIFYCPIAIMSALAMVYLGAKDSTRTQINKVVRFDKLPGFGDSIEAQCGTSVNVHSSLRDILNQITKPNDVYSFSLASRLYAEERYPILPEYLQCVKELYRGGLEPINFQTAADQARELINSWVESQTNGIIRNVLQPSSVDSQTAMVLVNAIVFKGLWEKAFKDEDTQAMPFRVTEQESKPVQMMYQIGLFRVASMASEKMKILELPFASGTMSMLVLLPDEVSGLEQLESIINFEKLTEWTSSNVMEERKIKVYLPRMKMEEKYNLTSVLMAMGITDVFSSSANLSGISSAESLKISQAVHAAHAEINEAGREVVGSAEAGVDAASVSEEFRADHPFLFCIKHIATNAVLFFGRCVSP
For B1, the “Activity of porcine pancreatic lipase (%)” value in assay [7] came out at 107.0%. Besides, the “Activity of cholesterol esterase (%)” value in assay [8] is recorded as 93.6%. For the molecule KKKKK [α-(L-lysine)5 (SEQ ID NO: 5)], the Activity of porcine pancreatic lipase (%) in assay [2] was 2.1 % of control.
